Experimental data taken from paper PMC9573744, “Structural Insight of KSIII (β-Ketoacyl-ACP Synthase)-like Acyltransferase ChlB3 in the Biosynthesis of Chlorothricin” (Molecules, 2022).

Biological target: the molecule itself
Assay: crystal structure; sitting drop vapor diffusion, 0.1 M HEPS pH 7.0, 1.4 M sodium acetate-trihydrate, 20 °C; space group P212121, four dimers per asymmetric unit; 3.1 Å

B1: ChlB3 (enzyme, Streptomyces antibioticus DSM 40725)
chain: MRTPDIFIKATGRFLPETVSVEWAVEQGHYSAEDAELHELGGAAVAGDTPAPDMALWAAQQAVKRCGHRPEDLGLLLYVDSWHQGPDGWQPQYYLQRHLVGGDVLAVEIQQGCNGMFSALELAAAHLRAGPRPGSALVVAADNFGTPLFDRWTTGPGYIAGDGAGAVVLTTEPGFARLLAVRSLAVPEAEQMHRGAEPLFPPGATIGRPLNFTSRNAAFRELSLTEGLGTGALMRVHQRTLEVVEKTLSEAGITLGDITRVAYMNFSREIVEQRCMAALGLPMSASTWEFGRKLGHLGASDQVVALDELVTTGELGPGDHLLMLGMGPGVTLSCAVVKVLTPAPWSD
notes: ChlB3 acyltransferase of Streptomyces antibioticus DSM 40725, amplified from genomic DNA; chlB3 of 1044 bp cloned into pET28a (NheI/HindIII); also called KSIII (β-ketoacyl-ACP synthase)-like acyltransferase ChlB3; source: E. coli BL21 (DE3), purified (Nickel-NTA, Superdex-200 gel filtration)
- stoichiometry N: 2
